What was measured:
[1] = Serum rhRLX, quantitative sandwich immunoassay (Example 2); type: in vivo, rat; settings: 4 μg/hour
Excerpt: The technique of urine collection has proven to be reliable. Conrad and Colpoys (1986) J. Clin. Invest. 77:236-245; Danielson and Conrad (1995) J. Clin. Invest. 96:482-490; and Danielson and Conrad (1996) Circ. Res. 79:1161-1166. Indeed, after reaching steady-state in this study, the excretion rates of IN and PAH were 91±3 and 100±4% of their respective infusions. After measuring baseline mean arterial pressure and renal function, an osmotic minipump (model 2ML1, Alza Co., Palo Alto Calif.) containing either recombinant human relaxin (rhRLX; n=12 rats) or vehicle (n=7) was implanted subcutaneously on the back using light ether anesthesia. […] Five days later, mean arterial pressure (MAP), glomerular filtration rate (GFR), effective renal plasma flow (ERPF), and other parameters were again assessed as describe above. At this time, the excretion rates of IN and PAH were 91±3 and 98±2% of their respective infusion rates. […]
Inulin concentration in plasma and urine was measured by the anthrone method, and PAH was determined by the method of Bratton and Marshall as modified by Smith. […] Plasma sodium was measured by a Kodak Ektachem Instrument (Rochester, N.Y.). Plasma osmolality was determined by freezing point depression (Advanced Osmometer, Model 3MO, Advanced Instruments, Needham Heights Mass.). […] The rhRLX in serum was measured using a quantitative sandwich immunoassay, again in a blinded fashion. […]

THP-1 cells = experiment: THP-1 cells: VEGF and bFGF mRNA induction; type: cell-based, human; settings: 100 ng/ml for 3 hours (FIG. 9)
Description: Sense and anti-sense primers for use with the real time RT-PCR, ABI Prism 7700 Sequence Detection System were designed using the PrimerExpress version 1.0 software (PE Applied Biosystems, Inc.). Rat and human specific primer/probe sets included those for GAPDH, bFGF, the VEGF 164 aa or 120 aa rat isoforms, and their respective human homologues (VEGF 165 and VEGF 121). ABI PRISM specific primer/probes were purchased from BioSource International Inc. or PE Applied Biosystems.
RT-PCR was performed on 150 ng for the analysis of VEGF and bFGF mRNA expression. Ten nanograms of total RNA was used for GAPDH niRNA expression. […] Data were analyzed using Sequence Detector v1.6.3 software (Applied Biosystems/PE). […]
Because macrophages are the inflammatory cells predominantly responsible for the angiogenic response that occurs during healing, a monocyte/macrophage cell line shown previously to bind relaxin with high affinity (THP-1) (Parsell et al. (1996) J. Biol. Chem. 271:27936-27941) was tested for relaxin inducibility of VEGF and bFGF. […] In order to determine whether the increase in VEGF mRNA observed following short-term relaxin treatment was reflected by an elevation in secreted VEGF protein, THP-1 cells were treated with relaxin (0.01-100 ng/ml) for 24 h, the conditioned media collected, and VEGF content in the media quantified by ELISA. […]

## rhRLX: recombinant human relaxin, identical in amino acid sequence to the product of the human H2 gene; A chain of 24, B chain of 29 amino acids
[1]; female rats, day 5
  mean serum concentration of rhRLX: 16.6 ± 1.5 ng/mL
[1]; male rats, day 5, n=12
  mean serum concentration of rhRLX: 12.3 ± 0.7 ng/mL
THP-1 cells
  Transcripts for VEGF: specifically upregulated

Reference: US6723702B2, “Use of relaxin treat diseases related to vasoconstriction” (RAS Medical, Inc., priority 2000, dated 2004)
